Data from a protein production outcome set (Wang et al. 2014).

Assay: label from the status in PepcDB records
With “MSLYDLKPNEKGRIKDIKGDERLSKRLSALGFIEGTEVEVKMMAPLGDPILVNVRGFNIAIRKNDAKNIFLKEAKLEHHHHHH” the protein production was “not failed”. With “MSLYTILVVDDSPMIVDVFVTMLERGGYRPITAFSGEECLEALNATPPDLVLLDIMMEPMDGWETLERIKTDPATRDIPVLMLTAKPLTPEEANEYGSYIEDYILKPTTHHQLYEAIEHVLARRHSIAADEGHHHHHH” the protein production was “not failed”. For “MSMKRSREESQGGGNHNRFVDEGPRLNLPLTKTPELINKIESYLKVHYTCPHQQTENSSKTSTLPKSPEKLKAMNFPISTIKIGDCVFVAKNPDDIVAKFYFAKKKLLWEFLFGEPVANMPRLKSKIEIQWNDVSSFEESINSRDETGILKIELKKRPTFFTETNPQAGKHTQWKQLDYDFTGDQASYYRRHTLHFPPGVLQKNLEKLLTDSFWSKLYKVPFPVHESLYFDIGFENNNSSNGHSKTVGFNVNNGLQHDFSQVRDLKERKKIITLIGIGGVGEGEGNFSMANGGWQRNSYSHVNSLNYNTDNGLLGMQAIPPSSQVANEHYNNTQNDYTGSQFGYRMNQDEIQKMQRIGKILESQAYAVPDTQTKLTSSGMNNGPMYPPAGSYLESRLLEEWYEHTRRFQQ”, the protein production was “not failed”. In the case of “MSMLKPSGLKAPTKILKPGSTALKTPTAVVAPVEKTISSEKASSTPSSETQEEFVDDFRVGERVWVNGNKPGFIQFLGETQFAPGQWAGIVLDEPIGKNDGSVAGVRYFQCEPLKGIFTRPSKLTRKV”, the protein production is reported as “not failed”. For “MSMPILLLVAVILAIYAVAYLFYGRNILQEKVVRASPERETPAIAKFDGVDYVPAHRFVLFGHHFASIAGAGPIVGPAIAMAYGWLLPLVWVLFGNVFMGAVHDYLSLMASVRYGGISIVSVGENLMGRKARYLFLIYVLFTLILVYAAFASIAASLFARDPRVATLSILFMPLALLLGIMMYRMGLGMGPSTVITVVLVIAAFVYSYNHGIVIGTFDPSLPPGEGGWVAYHRWVIILGLYALLAASLPVWYLLQPRDYLNAYILWTGLGLAAIAAILLGTQSLKGPAYTSFQPNIIAGQPTPFWPAIPLIIACGSLSGFHSLVASGTTSKQLASELDALFVGYGAMLLEGALSGLAVIIPISFAWNAPELIQKGVIENNMLDLAAVPRYAVGYGYTLAKTFEMFGVGFDTGYSFFTLFASLMLSMYVLTTLDTGTRLARFAWQELFDWLANVDKNLYSIVTNKWVSSLAVVIIGSALAYPVLEIGAGYKAAYNVVWPAFAGANQMLAAIALLTSALWVYGVLNVRGGTGLLILLPSLFLWVTVTAGLTWWLMVILPVLPAIQQFGAGSMILFTLLLSLLLFALFIINFNKLSKQAGASQQAQA”, the protein production was “failed”. With “MSMQEMVTISIVTYNSRYIFNVLDQLKAELGTDSIYDIHIYDNHSETAYLEKLTTYEPFITIHRAEENQGFGHGHNQVLFNASTKYAIIFNPDVLVTKDVLDRLLNRIKIDKNIAVVSPKVLNEDGTTQYLVRQKLDVFDYMLRFIPFQFVKKIFDKRLSIYECRDLSDTETTDIKMGSGCFMLIDREKFVEIGGFDERFFMYFEDNDLCLRFGKAGYRILYTPFETVVHMYEKGAHKSRKLFKIFMQSMGKFFNKWGWRFFLEHHHHHH” the protein production was “not failed”. With “MSMYNMDLDKVIRKINKKGARTVGLQFPEGLKMQAVKIAKAIESQTPATVIISGDPCFGACDVSDYKMKGSVDLIVHYGHTPLPLKYEVPTLFIEAFSNIDVKKDLEKCLEKLEDYSKIALVTTTQHLHLLNEIKDYLEDNGKEVVLGSSKNTKKGQVLGCNFSSIKNLDAEVYLFIGSGNFHPLGIYLFTKSPVLALDPYNSEIRDISAFADRILRIRFARITKAREAEKWGIIVSSKEGQYRMKLAKEIKKILEDNKMEAYIIMADNINPDILLPYMELDAFVVSACPRIAIDDSQMYKKPLLTPQELEIVLNKRQWENYQLDEILFHERYK” the protein production was “failed”. In the case of “MSNACLASSLLSVCFRLSTERSAMSTSRLRPRCLSVLLAALLLWGGLPTASAQPQRAVRADTLYTMTGDPIENGVVLIENETIAAVGPTSEVDVPASAEVHKASVVTPGLIDPRGTVGLSGIYNVPADQDQLDTSEPMQPALRALDAYNPREQLVSFVQQLGFTTVHTGHAPGALISGQTATFSTAGTTVEASLRDSITTVAFTLGPDAQARFESPGTRAKGVAMLRQALHDAQAAMDGGEPEGGDLGQDVLQDVLRGEVPALITAHRAHDIQTALRLQEEFGFDLILDGAAEAYLMTEEIAEADVPVILHPTMARPSGTTQNAAFTTAGVLHDAGVPVAIQTGWEPYVPKTRIALYEAAIAMAHGLPREAALASITREAAEILGLDNVGTVAPGQRADLALFDGDPFEYTTHVCTVLSGGEVVSDECK”, the protein production is reported as “failed”.
